Reference: US20230272113A1
Numbering of substitutions follows the chain as printed. Each block holds one binder with its values, some of them ahead of it.

Biological target: human FLT3 on transfected CHO cells (human) (UniProt P36888)
Test: FACS, scFv on CHO-human FLT3 cells pre-incubated with FLT3 ligand (competitor)

B1: FL-45 (scFv)
scFv: QVTLKESGPALVKPTQTLTLTCTFSGFSLSNARMGVSWIRQPPGKCLEWLAHIFSNDEKSYRTSLKSRLTISKDTSKSQVVLTMTNMDPVDTATYYCARIVGYGSGWYAYFDYWGQGTLVTVSSGGGGSGGGGSGGGGSDIQMTQSPSSLSASVGDRVTITCRASQGIRNDLGWYQQKPGKAPKRLIYAASSLQSGVPSRFSGSGSGTEFTLTISSLQPEDFATYYCLQHNSYPLTFGCGTKVEIK
median [+ligand]/median [w/o ligand]*100: > 75%

B2: FL-47 (scFv)
scFv: B1 scFv with R62S, N86D, V90E, S105T, A109G, Y110F, T118I, A164T
median [+ligand]/median [w/o ligand]*100: > 75%

B6: FL-43 (scFv)
scFv: QVTLKESGPVLVKPTETLTLTCTVSGFSFRNARMGVSWIRQPPGKCLEWLAHIFSNDEKSYSTSLKSRLTISKDTSKSQVVLTLTNMDPVDTATYFCARMPEYSSGWSGAFDIWGQGTMVTVSSGGGGSGGGGSGGGGSDIQMTQSPSSLSASVGDRVTITCRASQGIRNDLVWYQQKPGKAPKRLIYGTSTLQSGVPSRFSGSGSGTEFTLTISSLQPEDFATYYCLQHNSYPLTFGCGTKVEIK
median [+ligand]/median [w/o ligand]*100: > 75%

B7: FL-44 (scFv)
scFv: B6 scFv with A164T, G189A, T190A, Y226F, N231Y
median [+ligand]/median [w/o ligand]*100: > 75%

B8: FL-52 (scFv)
scFv: B6 scFv with V10T, V24F, F29L, N31Y, G167D, V173A, G189A, T190A, T192S, V243L
median [+ligand]/median [w/o ligand]*100: > 75%

B10: FL-46 (scFv)
scFv: QVTLKESGPVLVKPTQTLTLTCTFSGFSLSNARMGVSWIRQPPGKCLEWLALIYWNDDKRYSPSLKSRLTITKDTSKNQVVLTMTNMDPVDTATYYCARMVGYGSGWYAYFDYWGQGTLVTVSSGGGGSGGGGSGGGGSDIQMTQSPSSLSASVGDRVTITCRASQGIRNDLGWYQQKPGKAPKRLIYAASSLQSGVPSRFSGSGSGTEFTLTISSLQPEDFATYYCLQHNSYPLTFGCGTKVEIK
median [+ligand]/median [w/o ligand]*100: > 75%

B11: FL-49 (scFv)
scFv: QVTLKESGPTLVKPTETLTLTCTVSGFSLNNARMGVSWIRQPPGKCLEWLAHIFSNDEKSYSTSLKNRLTISKDSSKTQVVLTMTNVDPVDTATYYCARIVGYGTGWFGYFDYWGQGTQVTVSSGGGGSGGGGSGGGGSDIQMTQSPSSLSASVGDRVTITCRASQDIRTDLAWYQQKPGKAPKRLIYAASSLQSGVPSRFSGSGSGTEFTLTISSLQPEDFATYYCLQHNRYPLTFGCGTKVDIK
median [+ligand]/median [w/o ligand]*100: > 75%

B12: FL-50 (scFv)
scFv: QVTLKESGPTLVKPTETLTLTCTVSGFSLSNARMGVSWIRQPPGKCLEWLAHIFSNDEKSYSTSLKSRLTISKDTSKSQVVLTMTNMDPVDTATYYCARIPGYGGNFYYHYYGMDVWGQGTTVTVSSGGGGSGGGGSGGGGSDIQMTQSPSSLSASVGDRVTITCRASQGIRNDLAWYQQKPGKAPKRLIYAASTVQSGVPSRFSGSGSGTEFALTISSLQPEDFATYYCLQHNSFPWTFGCGTKVDIK
median [+ligand]/median [w/o ligand]*100: > 75%

B13: FL-51 (scFv)
scFv: QVTLKESGPTLVKPTETLTLTCTVSGFSLRNVRMGVSWIRQPPGKCLEWLAHISSNDEKSYSTSLRSRLTISTDTSKSQVVLTMTNMDPVDTATYYCARMPGDSNTWRGFFDYWGQGTLVTVSSGGGGSGGGGSGGGGSEIVMTQSPATLSVSPGERATLSCRTSQSVNNNLAWYQQKPGQAPRLLIYGASTRATGIPARFSGSGSGTEFTLTISSLQPEDFATYYCLQHNSYPLTFGCGTKVEIK
median [+ligand]/median [w/o ligand]*100: > 75%

B15: FL-48 (scFv)
scFv: QVTLKESGPMLVKPTETLTLTCTFSGFSLRNARMGVSWIRQPPGKCLEWLAHIFWNDEKSYSTSLKSRLTISKDTSKSQVVLTMTNMDPVDTATYYCARIPYYGSGSYNYGMDVWGQGTTVTVSSGGGGSGGGGSGGGGSDIQMTQSPSSLSASVGDRVTITCRASQGIRNDLGWYQQKPGKAPKRLIYAASSLQSGVPSRFSGSGSGTEFTLTISSLQPEDFATYYCLQHNTYPLTFGCGTKVDIK
median [+ligand]/median [w/o ligand]*100: > 75%

Now from value to binder:

median [+ligand]/median [w/o ligand]*100: > 75%
B3: FL-56 (scFv)
scFv: QVTLKESGPVLVKPTETLTLTCTVSGFSLRNVRMGVSWIRQPPGKALEWLAHIFSNDEKLYTTSLKSRLTISKDTSKSQVVLTMTNMDPEDTATYYCARIVGYGTGWYGYFDYWGQGTQVTVSSGGGGSGGGGSGGGGSDIQMTQSPSSLSASIGDRVTITCRASQDIRDDLGWYQREPGKAPKRLIYATSIRQSGVPSRFSGSGSGTEFTLTISGLQPEDFATYFCLQHHSFPLTFGGGTKVDIK

median [+ligand]/median [w/o ligand]*100: > 75%
B4: FL-57 (scFv)
scFv: QVTLKESGPTLVKPTETLTLTCTFSGFSLRYARMGVSWIRQPPGKALEWLAHISSNDEKSFSTALESRLTISTDTSKSQMVLTMTNVDPVDTATYYCARMPGDSNTWRGFFDYWGQGTLVTVSSGGGGSGGGGSGGGGSEIVMTQSPGTLSLSPGERATLSCRTSQTVTNSYIAWYQQRPGQAPRLLIYGTSTRATGIPDRFSGSGSGTDFTLTISRLEPEDFAVYYCQKYGSSPLTFGGGTKLEIK

median [+ligand]/median [w/o ligand]*100: > 75%
B5: FL-54 (scFv)
scFv: QVQLVESGGGVVQPGRSLRLSCAASGFTFSSYGMHWVRQAPGKCLEWVAVISYDGSNEFYADSVKGRFTISRDNSKNTLYLQMNSLRAEDTAVYYCARGGEITMVRGVIGYYYYGMDVWGQGTTVTVSSGGGGSGGGGSGGGGSEIVMTQSPATLSVSPGERATLSCRASQGVRNNLVWYQQKPGQAPRLLIYGASTRATGIPARFSGSGSGTEFTLTISSLQSEDFATYYCLQHNSYPLTFGCGTKVEIK

median [+ligand]/median [w/o ligand]*100: > 75%
B9: FL-53 (scFv)
scFv: QVQLVESGGGVVQPGRSLRLSCAASGFTFSSYGMHWVRQAPGKCLEWVAVISYDGSNEFYADSVKGRFTISRDNSKNTLYLQMNSLRAEDTAVYYCARGGEITMVRGVIGYYYYGMDVWGQGTTVTVSSGGGGSGGGGSGGGGSDIQMTQSPSSLSASVGDRVTITCRTSQSISSYLNWYQQKPGKAPKLLIYAASSLQSGVPSRFSGSGSGTEFTLTISSLQPEDFATYYCLQHNSYPLTFGCGTKVDIK

median [+ligand]/median [w/o ligand]*100: > 75%
B14: FL-58 (scFv)
scFv: B13 scFv with C46A, C239G
